Experiment [1] has as its target T1, mesothelin on the cell surface (OVCAR3, Capan-2 cells) (UniProt Q13421 296-598). The experiment is described as follows: cell-based or functional assay.
Another experiment has as its target T2, CD3 on Jurkat cells (UniProt P07766 23-207).
T2 construct: whole, on cells; Part of the TCR/CD3 complex on cells
The experiment is described as follows: flow cytometry on Jurkat cells.

For experiment [2], the target named is T1, mesothelin on the cell surface (OVCAR3, …). Put plainly: flow cytometry on OVCAR3 cells.
Experiment [3] deals with T3, mesothelin (soluble, recombinant) (UniProt Q13421 296-580, limits assumed).
T3 construct: also called MSLN; soluble MSLN
Put plainly: method not stated; quoted in the T cell activation example.

The target of experiment [4] is T3, mesothelin (soluble, recombinant). Put plainly: cell-based or functional assay.
The target is the same in experiment [5]. The experiment is described as follows: Octet BLI, bsAb captured on AHC biosensors, mesothelin 0-200 nM, 1:1 model. In general terms: In BLI a coated tip is dipped into the sample, and binding shifts an interference pattern.
Source text: The Fe-epitope anti-human capture (AHC) biosensors from ForteBio were used for loading the testing bsAbs. […] A probe loaded with a control antibody was used as a reference sensor. […] The dissociation constants (KD) and Kₒₙ/Koff are estimated by fitting to the 1:1 binding model. The probes were regenerated for multiple rounds of measurements.
Experiment [6] has as its target mesothelin on the cell surface (OVCAR3, Capan-2 cells) (UniProt Q13421 296-598). Put plainly: cell-based or functional assay. The source holds these as a separate data set.
The target in experiment [7] is T3, mesothelin (soluble, recombinant). Put plainly: SPR, Biacore 3000, antibody captured via an Fc antibody, mesothelin 0.625-10 nM. For orientation: Surface plasmon resonance follows binding to a sensor surface in real time, without labels.
For experiment [8] the target is unchanged. Put plainly: SPR (Biacore 3000), antibody captured on the chip via an Fc antibody, mesothelin 0.625-10 nM [text above the curves].
Procedure: The measurement was performed by immobilizing the tested antibody and then perfusing with corresponding concentrations of mesothelin.

Where a chain is given by its changes, count along the chain named. Names and notes keep the numbering of the source.

The EC50 is the concentration that produces a half-maximal response. A low value points to a more potent agent. A word on the Kd: it is a measure of binding affinity in units of concentration. In general, koff refers to the rate constant with which the complex falls apart. As usually defined, the kon is a measure of how fast the partners come together.

B1: m912-[L]-scFv^CD3 bsAb (bispecific antibody, V domains shown)
VH: QVQLQESGPGLVKPSETLSLTCTVSGGSVSSGSYYWSWIRQPPGKGLEWIGYIYYSGSTNYNPSLKSRVTISVDTSKNQFSLKLSSVTAADTAVYYCAREGKNGAFDIWGQGTMVTVSS
VL: not shown
With B1, in [1], the “EC50, T cell activation assay (Jurkat NFAT-luciferase reporter) in the presence of Capan-2 cells” value (“EC50, T cell activation assay … of Capan-2 cells” for short) came to 6.92 µg/mL and the “EC50, T cell activation assay (Jurkat NFAT-luciferase reporter) in the presence of OVCAR3 cells” value (shortened to “EC50, T cell activation assay … of OVCAR3 cells”) is 6.64 µg/mL. In addition, the midpoint of the response with CD3 on Jurkat cells, the EC50, lay at 0.403 µg/mL. The same molecule gave an EC50 in [2] of 0.572 µg/mL. Further, in experiment [3], the Kd is 72 nM.

B2: MSLN-39-[L]-scFv^CD3 bsAb (bispecific antibody, V domains shown)
VH: B1 VH with G32F, S33T, Y34D, Y35T, G101D, K102A, N103L, G104T, A105G
VL: DIQMTQSPSSLSASVGDRVTITCRASQSSRYYVNWYQQKPGKAPKLLIYAASSLQSGVPSRFSGSGSGTDFTLTISSLQPEDFATYYCQQSYDASYTFGGGTKVEIK
Turning to B2, the “fold increase of the IC50 in the luciferase-based cytotoxicity assay on NCI-N87 cells at 200 ng/mL of soluble MSLN” value in experiment [4] stood at 27 fold. In experiment [1], the “EC50, T cell activation assay … of Capan-2 cells” value came out at 0.0128 µg/mL and the “EC50, T cell activation assay … of OVCAR3 cells” value came out at 0.0082 µg/mL. In the experiment with CD3 on Jurkat cells, this molecule gave an EC50 of 0.893 µg/mL. In experiment [2], this molecule showed an EC50 of 0.0124 µg/mL. In [5], the Kd amounted to 0.00107 nM, the koff came out at 4.05e-07 s⁻¹ and the kon was 379000 M⁻¹ s⁻¹.

B3: MSLN-30-[L]-scFv^CD3 bsAb (bispecific antibody, V domains shown)
VH: B1 VH with G32R, S33D, Y34D, Y35L, E100D, G101F, K102V, N103L, G104S, A105G
VL: B2 VL with S29I, R30S, Y31S, V33L, S91P
For B3, in [1], the “EC50, T cell activation assay … of Capan-2 cells” value came to 0.0117 µg/mL and the “EC50, T cell activation assay … of OVCAR3 cells” value was found to be 0.0098 µg/mL. Moreover, the EC50 with CD3 on Jurkat cells is 0.521 µg/mL. In addition, the EC50 in experiment [2] turned out to be 0.0121 µg/mL. In addition, in [5], the Kd was 0.00171 nM, the off-rate (koff) was found to be 2.44e-07 s⁻¹ and the kon turned out to be 221000 M⁻¹ s⁻¹.

B4: HP4-44-[L]-scFv^CD3 bsAb (bispecific antibody, V domains shown)
VH: B1 VH with G101D, K102V, N103L, G104S, A105G
VL: B2 VL with S29I, R30S, Y31S, V33L, S95F
In the case of B4, the “fold increase of the IC50 in the luciferase-based cytotoxicity assay on NCI-N87 cells at 200 ng/mL of soluble MSLN” value in [4] worked out at 2.5 fold. Moreover, in experiment [1], the “EC50, T cell activation assay … of Capan-2 cells” value came to 0.0105 µg/mL and the “EC50, T cell activation assay … of OVCAR3 cells” value was found to be 0.0087 µg/mL. In the experiment with CD3 on Jurkat cells, this molecule yielded an EC50 of 0.636 µg/mL. The same molecule returned an EC50 in experiment [2] of 0.0096 µg/mL. Further, in experiment [5], the dissociation constant Kd was determined as 2.91 nM, the koff worked out at 0.000809 s⁻¹ and the kon stood at 278000 M⁻¹ s⁻¹.

B5: MSLN-31-[L]-scFv^CD3 bsAb (bispecific antibody, V domains shown)
VH: B1 VH with G32F, S33T, Y34D, Y35T, E100D, G101F, K102V, N103L, G104S, A105G
VL: B2 VL with S29I, R30S, Y31S, V33L, S91P
notes: IgG-[L]-scFv format; also called MSLN-31 bsAb; not shown: IgG heavy constant region (N297G, K322A), light constant region and the huOKT3-scFv with its 3xG4S linker; copies: 2 + 2
As to B5, in [6], the “EC50, T cell activation assay … of Capan-2 cells” value is 0.0156 µg/mL and the “EC50, T cell activation assay … of OVCAR3 cells” value is 0.0116 µg/mL. Besides, in experiment [5], the Kd was 0.00118 nM, the koff was determined as 3.03e-07 s⁻¹ and the kon was determined as 258000 M⁻¹ s⁻¹.

B6: MSLN-39 IgG (antibody, V domains shown)
VH: B1 VH with G32F, S33T, Y34D, Y35T, G101D, K102A, N103L, G104T, A105G
VL: B2 VL
notes: IgG; also called MSLN-39 antibody; MSLN-39 in IgG format
Take B6: the Kd in experiment [7] was found to be 0.0564 nM. Also, in experiment [8], the koff stood at 8.93e-05 s⁻¹ and the on-rate (kon) amounted to 1.58e+06 M⁻¹ s⁻¹.

Source of the values: patent US20260209319A1 (JECHO LABORATORIES, published 2026).
